Experimental findings from article PMC5689005 are described below.

For data set [1], the target named is hLysRSΔN65 (human lysyl-tRNA synthetase, N-terminally truncated) (human, UniProt Q15046 66-597, del1-65). The data set can be described thus: fluorescence anisotropy.
The target in data set [2] is hLysRS (full-length human lysyl-tRNA synthetase) (human, UniProt Q15046 1-597). Description: fluorescence anisotropy. For orientation: Polarisation of emitted light reports the rotation of a fluorescent probe.
Sequence of hLysRS (full-length human lysyl-tRNA synthetase) (Q15046 whole entry): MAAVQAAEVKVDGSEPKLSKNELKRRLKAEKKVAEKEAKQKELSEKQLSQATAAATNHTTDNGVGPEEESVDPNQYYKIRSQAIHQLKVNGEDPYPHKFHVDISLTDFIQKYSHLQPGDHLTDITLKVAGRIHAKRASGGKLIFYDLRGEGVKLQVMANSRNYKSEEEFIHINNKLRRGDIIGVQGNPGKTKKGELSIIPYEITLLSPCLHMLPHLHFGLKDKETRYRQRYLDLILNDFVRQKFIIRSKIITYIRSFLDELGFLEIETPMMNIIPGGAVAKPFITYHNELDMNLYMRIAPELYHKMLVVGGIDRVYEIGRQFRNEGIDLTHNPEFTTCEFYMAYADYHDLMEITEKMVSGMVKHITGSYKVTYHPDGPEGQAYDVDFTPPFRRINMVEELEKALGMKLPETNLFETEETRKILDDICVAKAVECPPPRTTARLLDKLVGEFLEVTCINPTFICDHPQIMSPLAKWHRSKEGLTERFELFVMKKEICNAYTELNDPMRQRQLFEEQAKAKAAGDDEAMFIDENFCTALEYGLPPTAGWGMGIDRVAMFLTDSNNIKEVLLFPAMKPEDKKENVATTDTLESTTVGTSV

Sequence of hLysRSΔN65 (human lysyl-tRNA synthetase, N-terminally truncated) (Q15046 66-597, stated change not applied): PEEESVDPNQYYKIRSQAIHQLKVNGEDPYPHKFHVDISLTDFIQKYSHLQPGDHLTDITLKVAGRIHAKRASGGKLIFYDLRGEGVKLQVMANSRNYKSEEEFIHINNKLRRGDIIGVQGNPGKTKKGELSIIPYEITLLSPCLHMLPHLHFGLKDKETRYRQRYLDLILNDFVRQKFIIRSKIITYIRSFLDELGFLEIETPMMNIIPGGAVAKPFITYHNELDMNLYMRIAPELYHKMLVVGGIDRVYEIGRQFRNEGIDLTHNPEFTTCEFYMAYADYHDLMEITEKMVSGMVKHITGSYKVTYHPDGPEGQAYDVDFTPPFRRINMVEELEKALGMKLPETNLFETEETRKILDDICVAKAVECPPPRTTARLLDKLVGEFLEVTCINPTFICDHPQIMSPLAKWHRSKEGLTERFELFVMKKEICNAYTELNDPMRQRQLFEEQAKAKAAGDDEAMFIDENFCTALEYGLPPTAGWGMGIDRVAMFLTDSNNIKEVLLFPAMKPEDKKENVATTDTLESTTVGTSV

With GGCGACGGUGUAAAAAUCUCGCC (structured_RNA) [HP1 (A-rich stem-loop)], the binding result in data set [1] and in data set [2] was “no binding” throughout.
For GGGCUUUAAAGUGAAAGCCC (structured_RNA) [HP2], the binding result in data set [1] is “no binding”.
